Values quoted from earlier work, collected in publication PMC3505834.

Target: C3b C3b (Homo sapiens) (UniProt P01024)
Sequence (P01024 566-670): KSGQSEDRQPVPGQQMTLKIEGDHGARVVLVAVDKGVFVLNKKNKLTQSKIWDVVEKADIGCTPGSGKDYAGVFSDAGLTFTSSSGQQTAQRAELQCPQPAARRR

Sequence of CD46 (P15529 35-343): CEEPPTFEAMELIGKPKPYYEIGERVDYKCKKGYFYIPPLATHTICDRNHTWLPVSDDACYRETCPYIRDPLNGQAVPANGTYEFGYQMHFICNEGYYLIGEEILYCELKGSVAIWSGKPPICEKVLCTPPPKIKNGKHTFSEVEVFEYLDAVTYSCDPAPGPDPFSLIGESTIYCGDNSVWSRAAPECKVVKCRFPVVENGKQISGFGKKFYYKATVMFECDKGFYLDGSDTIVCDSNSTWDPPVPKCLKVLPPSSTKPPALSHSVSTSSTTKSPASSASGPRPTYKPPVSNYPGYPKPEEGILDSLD

Kd: 1000 nM
Substance: CD46 (from UniProt P15529)
